Patent publication US20230074436A1 (DENALI THERAPEUTICS, published 2023)
No end group written: not given here. *: point of attachment. Biotin = O=C1N[C@H]2[C@H](CS[C@H]2CCCCC(=O)*)N1

What was measured:
asyn_113-127 [1] = molecular target: T1, asyn_113-127 (human); test: Ala-scan peptide ELISA, row A, run 1
T1 construct: also called pep1
T1 peptide: Biotin-LEDMPVDPDNEAYEM
Procedure: (§1) 96-well Nunc plates were coated with 50 μL per well of 1 μg/mL streptavidin (from Jackson Immuno Research Laboratory) in PBS at 4° C. overnight. The plates were washed three times with PBST, and blocked with PBS containing 3% BSA at room temperature for 1 hour. The N-terminal biotinylated peptides were dissolved in Milli Q water to a concentration of 2 mg/mL, then further diluted to a concentration of 2 μg/mL with PBS. 50 μl of the diluted peptide was applied to the streptavidin-coated plates and incubated at 4° C. overnight. 2 μg/mL of biotinylated human alpha-synuclein was used as the positive control. The plates were washed three times with PBST before use. Purified antibody was diluted by serial dilution methods, from 20 μg/mL to 1 ng/mL, and 50 μL of the antibody solution was added to the peptide-coated wells. The plates were incubated for 1 hour at room temperature, then washed three times with PBST. Secondary detection antibody (goat anti-rat HRP (obtained from Southern Biotech)) was added with 1:5,000 dilutions and incubated for 1 hour at room temperature, then washed three times with PBST. Plates were developed with 50 μL/well of TMB substrate (Thermo Fisher) and quenched with 50 μL/well of 1 N sulfuric acid. The signal was quantified on a BioTek® plate reader at A450. A parallel repeat was performed for each peptide in a separate plate.

asyn_113-127_113A [2] = molecular target: T2, asyn_113-127_113A (human); test: Ala-scan peptide ELISA, row A, run 1
T2 construct: substitution is already in the entry; also called pep2
T2 peptide: Biotin-AEDMPVDPDNEAYEM
Procedure: as §1

asyn_113-127_114A [3] = molecular target: T3, asyn_113-127_114A (human); test: Ala-scan peptide ELISA, row A, run 1
T3 construct: substitution is already in the entry; also called pep3
T3 peptide: Biotin-LADMPVDPDNEAYEM
Procedure: as §1

asyn_113-127_115A [4] = molecular target: T4, asyn_113-127_115A (human); test: Ala-scan peptide ELISA, row A, run 1
T4 construct: substitution is already in the entry; also called pep4
T4 peptide: Biotin-LEAMPVDPDNEAYEM
Procedure: as §1

asyn_113-127_116A [5] = molecular target: T5, asyn_113-127_116A (human); test: Ala-scan peptide ELISA, row A, run 1
T5 construct: substitution is already in the entry; also called pep5
T5 peptide: Biotin-LEDAPVDPDNEAYEM
Procedure: as §1

asyn_113-127_117A [6] = molecular target: T6, asyn_113-127_117A (human); test: Ala-scan peptide ELISA, row A, run 1
T6 construct: substitution is already in the entry; also called pep6
T6 peptide: Biotin-LEDMAVDPDNEAYEM
Procedure: as §1

asyn_113-127_118A [7] = molecular target: T7, asyn_113-127_118A (human); test: Ala-scan peptide ELISA, row A, run 1
T7 construct: substitution is already in the entry; also called pep7
T7 peptide: Biotin-LEDMPADPDNEAYEM
Procedure: as §1

asyn_113-127_119A [8] = molecular target: T8, asyn_113-127_119A (human); test: Ala-scan peptide ELISA, row A, run 1
T8 construct: substitution is already in the entry; also called pep8
T8 peptide: Biotin-LEDMPVAPDNEAYEM
Procedure: as §1

asyn_113-127_120A [9] = molecular target: T9, asyn_113-127_120A (human); test: Ala-scan peptide ELISA, row A, run 1
T9 construct: substitution is already in the entry; also called pep9
T9 peptide: Biotin-LEDMPVDADNEAYEM
Procedure: as §1

asyn_113-127_121A [10] = molecular target: T10, asyn_113-127_121A (human); test: Ala-scan peptide ELISA, row A, run 1
T10 construct: substitution is already in the entry; also called pep10
T10 peptide: Biotin-LEDMPVDPANEAYEM
Procedure: as §1

asyn_113-127_122A [11] = molecular target: T11, asyn_113-127_122A (human); test: Ala-scan peptide ELISA, row A, run 1
T11 construct: substitution is already in the entry; also called pep11
T11 peptide: Biotin-LEDMPVDPDAEAYEM
Procedure: as §1

asyn_113-127_123A [12] = molecular target: T12, asyn_113-127_123A (human); test: Ala-scan peptide ELISA, row A, run 1
T12 construct: substitution is already in the entry; also called pep12
T12 peptide: Biotin-LEDMPVDPDNAAYEM
Procedure: as §1

asyn_113-127_124G [13] = molecular target: T13, asyn_113-127_124G (human); test: Ala-scan peptide ELISA, row A, run 1
T13 construct: substitution is already in the entry; also called pep13
T13 peptide: Biotin-LEDMPVDPDNEGYEM
Procedure: as §1

asyn_113-127_124P [14] = molecular target: T14, asyn_113-127_124P (human); test: Ala-scan peptide ELISA, row A, run 1
T14 construct: substitution is already in the entry; also called pep14
T14 peptide: Biotin-LEDMPVDPDNEPYEM
Procedure: as §1

asyn_113-127_125A = molecular target: T15, asyn_113-127_125A (human); test: Ala-scan peptide ELISA, row A, run 1
T15 construct: substitution is already in the entry; also called pep15
T15 peptide: Biotin-LEDMPVDPDNEAAEM
Procedure: as §1

asyn_113-127_126A [15] = molecular target: T16, asyn_113-127_126A (human); test: Ala-scan peptide ELISA, row A, run 1
T16 construct: substitution is already in the entry; also called pep16
T16 peptide: Biotin-LEDMPVDPDNEAYAM
Procedure: as §1

asyn_113-127_127A = molecular target: T17, asyn_113-127_127A (human); test: Ala-scan peptide ELISA, row A, run 1
T17 construct: substitution is already in the entry; also called pep17
T17 peptide: Biotin-LEDMPVDPDNEAYEA
Procedure: as §1

[16] = molecular target: T18, biotinylated human alpha-synuclein (human, UniProt P37840 1-140); test: Ala-scan peptide ELISA, row A, run 1
Procedure: as §1

asyn_113-127 [17] = molecular target: T1, asyn_113-127; test: Ala-scan peptide ELISA, row F, run 1
Procedure: as §1

asyn_113-127_113A [18] = molecular target: T2, asyn_113-127_113A; test: Ala-scan peptide ELISA, row F, run 1
Procedure: as §1

asyn_113-127_114A [19] = molecular target: T3, asyn_113-127_114A; test: Ala-scan peptide ELISA, row F, run 1
Procedure: as §1

asyn_113-127_115A [20] = molecular target: T4, asyn_113-127_115A; test: Ala-scan peptide ELISA, row F, run 1
Procedure: as §1

asyn_113-127_116A [21] = molecular target: T5, asyn_113-127_116A; test: Ala-scan peptide ELISA, row F, run 1
Procedure: as §1

asyn_113-127_117A [22] = molecular target: T6, asyn_113-127_117A; test: Ala-scan peptide ELISA, row F, run 1
Procedure: as §1

asyn_113-127_118A [23] = molecular target: T7, asyn_113-127_118A; test: Ala-scan peptide ELISA, row F, run 1
Procedure: as §1

asyn_113-127_119A [24] = molecular target: T8, asyn_113-127_119A; test: Ala-scan peptide ELISA, row F, run 1
Procedure: as §1

asyn_113-127_120A [25] = molecular target: T9, asyn_113-127_120A; test: Ala-scan peptide ELISA, row F, run 1
Procedure: as §1

asyn_113-127_121A [26] = molecular target: T10, asyn_113-127_121A; test: Ala-scan peptide ELISA, row F, run 1
Procedure: as §1

asyn_113-127_122A [27] = molecular target: T11, asyn_113-127_122A; test: Ala-scan peptide ELISA, row F, run 1
Procedure: as §1

asyn_113-127_123A [28] = molecular target: T12, asyn_113-127_123A; test: Ala-scan peptide ELISA, row F, run 1
Procedure: as §1

asyn_113-127_124G [29] = molecular target: T13, asyn_113-127_124G; test: Ala-scan peptide ELISA, row F, run 1
Procedure: as §1

asyn_113-127_124P [30] = molecular target: T14, asyn_113-127_124P; test: Ala-scan peptide ELISA, row F, run 1
Procedure: as §1

asyn_113-127_126A [31] = molecular target: T16, asyn_113-127_126A; test: Ala-scan peptide ELISA, row F, run 1
Procedure: as §1

[32] = molecular target: T18, biotinylated human alpha-synuclein; test: Ala-scan peptide ELISA, row F, run 1
Procedure: as §1

[33] = molecular target: human alpha-synuclein pre-formed fibrils (human, UniProt P37840 1-140); test: competition ELISA: fibrils titrated in solution against 0.6 nM antibody, free antibody read on aSyn-coated plate
Procedure: Purified antibody was probed with different concentrations of alpha-synuclein fibrils in solution, and the levels of unbound antibody were measured by ELISA analysis. In this experiment, 0.6 nM (0.1 μg/mL) of purified antibody was dissolved in phosphate-buffered saline (PBS) solution. […] The mixtures were gently shaken at room temperature for 1 hour to reach equilibrium. After that, these samples were transferred to an alpha-synuclein protein-coated ELISA plate and incubated for 5 minutes. During this short incubation, antibody that was not associated to antigen in the previous solution could instead bind onto the plate, and thus be quantified using a standard ELISA technique. By this means, it was possible to determine the amount of free antibody in the initial mixture with alpha-synuclein fibrils at indicated concentrations.

B1: 20H4 (antibody, rat IgG2b, V domains shown)
VH: AVQLVESGGGLVQPKESLKISCAASGFTFSNAAMYWVRQAPGKGLELLARIRTKPNNYATYHADSVKGRFTISRDDSQSMVYLHMGNLKTEDTAMYYCTADMATGDYWGPGVMVTVSS
VL: DIQMTQSPPVLSVSVGDRVTLSCKASQNINKNLDWYQQKHGEAPKPLIYSTNNLQTGVPSRFSGSGSGTDYTLTISSLQPEDVATYYCYQYKSAWTFGGGTKLELR
notes: also called clone 20H4; rat 20H4
A450 (asyn_113-127 [1]): 0.545 OD | A450 (asyn_113-127_113A [2]): 0.529 OD | A450 (asyn_113-127_114A [3]): 0.505 OD | A450 (asyn_113-127_115A [4]): 0.502 OD | A450 (asyn_113-127_116A [5]): 0.524 OD | A450 (asyn_113-127_117A [6]): 0.55 OD | A450 (asyn_113-127_118A [7]): 0.504 OD | A450 (asyn_113-127_119A [8]): 0.063 OD | A450 (asyn_113-127_120A [9]): 0.414 OD | A450 (asyn_113-127_121A [10]): 0.496 OD | A450 (asyn_113-127_122A [11]): 0.06 OD | A450 (asyn_113-127_123A [12]): 0.533 OD | A450 (asyn_113-127_124G [13]): 0.371 OD | A450 (asyn_113-127_124P [14]): 0.055 OD | A450 (asyn_113-127_125A): 0.053 OD | A450 (asyn_113-127_126A [15]): 0.371 OD | A450 (asyn_113-127_127A): 0.338 OD | A450 [16]: 0.66 OD | A450 (asyn_113-127 [17]): 0.149 OD | A450 (asyn_113-127_113A [18]): 0.151 OD | A450 (asyn_113-127_114A [19]): 0.153 OD | A450 (asyn_113-127_115A [20]): 0.089 OD | A450 (asyn_113-127_116A [21]): 0.172 OD | A450 (asyn_113-127_117A [22]): 0.174 OD | A450 (asyn_113-127_118A [23]): 0.169 OD | A450 (asyn_113-127_119A [24]): 0.05 OD | A450 (asyn_113-127_120A [25]): 0.132 OD | A450 (asyn_113-127_121A [26]): 0.153 OD | A450 (asyn_113-127_122A [27]): 0.05 OD | A450 (asyn_113-127_123A [28]): 0.171 OD | A450 (asyn_113-127_124G [29]): 0.145 OD | A450 (asyn_113-127_124P [30]): 0.044 OD | A450 (asyn_113-127_126A [31]): 0.149 OD | A450 [32]: 0.243 OD | IC50 [33]: 1.73 nM
